By stoichiometry N is commonly meant the number of molecules, sites or subunits per partner or assembly.

In publication PMC5428876, “The role of Lon-mediated proteolysis in the dynamics of mitochondrial nucleic acid-protein complexes” one finds binding result and stoichiometry N data, which are given here for 8 molecules.

For one data set, the target named is T1, Abf2 (Saccharomyces cerevisiae, UniProt Q02486 27-183, del1-26).
T1 sequence: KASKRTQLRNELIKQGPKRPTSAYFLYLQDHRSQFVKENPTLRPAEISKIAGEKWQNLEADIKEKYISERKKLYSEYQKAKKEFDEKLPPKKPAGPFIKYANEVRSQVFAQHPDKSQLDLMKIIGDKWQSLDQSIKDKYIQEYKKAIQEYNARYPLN
In words: EMSA; 25 mM Tris-HCl pH 7.4, 100 mM NaCl, 0.1 mg/ml BSA, 10 min, 30 C (Abf2) or 37 C (TFAM); Cy3 probes 75 nM, ssDNA 10 uM, dsDNA 4 uM; Mgm101 as in Pevala et al. As to conditions: protein: recombinant, tags: 6xHis-GST removed by PreScission, chain copies: 2, label: 5' Cy3. Background: Mobility shift assays separate free from complexed probe on a gel.

The target of data set [1] is T2, Saccharomyces cerevisiae mtDNA packaging protein Abf2 lacking the mitochondrial targeting sequence (S. cerevisiae), Q02486.
T2 chain: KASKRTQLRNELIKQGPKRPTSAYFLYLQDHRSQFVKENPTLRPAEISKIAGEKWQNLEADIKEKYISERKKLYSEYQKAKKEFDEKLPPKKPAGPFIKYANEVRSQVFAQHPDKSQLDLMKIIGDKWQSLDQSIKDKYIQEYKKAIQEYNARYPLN
Nature of the data set: SEC; final purification step of Abf2 on Superdex 75 10/300 GL in buffer B (50 mM ammonium acetate, pH 7.3, 500 mM KCl) with 5% (v/v) glycerol. Particulars: remark: other sources report otherwise.

B1: dsDNA 49 bp (dsDNA)
DNA 1: AGCTACCATGCCTGCACGAATTAAGCAATTCGTAATCATGGTCATAGCT
DNA 2: AGCTATGACCATGATTACGAATTGCTTAATTCGTGCAGGCATGGTAGCT
Consider B1, for which the binding result in the data set with Abf2 (blunt) is “binds”.

B2: 3' flap (structured_DNA)
DNA 1: AGCTACCATGCCTGCACGAATTAAGCAATTCGTAATCATGGTCATAGCT
DNA 2: AATTCGTGCAGGCATGGTAGCT
DNA 3: AGCTATGACCATGATTACGAATTGCTTGGAATCCTGACGAACTGTAG
With B2, the binding result with Abf2 (flap 1:2 1:3, 3' flap 20 nt on strand 3) was “binds”.

B3: Y-form (structured_DNA)
DNA 1: AGCTACCATGCCTGCACGAATTAAGCAATTCGTAATCATGGTCATAGCT
DNA 2: AGCTATGACCATGATTACGAATTGCTTGGAATCCTGACGAACTGTAG
In the case of B3, the binding result with Abf2 (Y-form) is recorded as “binds”.

B4: fork (structured_DNA)
DNA 1: AGCTACCATGCCTGCACGAATTAAGCAATTCGTAATCATGGTCATAGCT
DNA 2: AGCTATGACCATGATTACGAATTGCTTGGAATCCTGACGAACTGTAG
DNA 3: CTACAGTTCGTCAGGATTCC
DNA 4: AATTCGTGCAGGCATGGTAGCT
As for B4, the binding result in the data set with Abf2 (fork) is on record as “binds”.

B5: 3' overhang (mixed)
DNA 1: AGCTACCATGCCTGCACGAATTAAGCAATTCGTAATCATGGTCATAGCT
DNA 2: AATTCGTGCAGGCATGGTAGCT
As to B5, the binding result in the data set with Abf2 (3' overhang 27 nt) is “binds”.

B6: 5' overhang (mixed)
DNA 1: AGCTACCATGCCTGCACGAATTAAGCAATTCGTAATCATGGTCATAGCT
DNA 2: AGCTATGACCATGATTACGAATTGCTT
On to B6, for which the binding result in the data set with Abf2 (5' overhang 22 nt) is on record as “binds”.

B7: 5' flap (structured_DNA)
DNA 1: AGCTACCATGCCTGCACGAATTAAGCAATTCGTAATCATGGTCATAGCT
DNA 2: AGCTATGACCATGATTACGAATTGCTT
DNA 3: GATGTCAAGCAGTCCTAAGGAATTCGTGCAGGCATGGTAGCT
Take B7: in the data set with Abf2 (flap 1:2 1:3, 5' flap 20 nt on strand 3), the binding result is recorded as “binds”.

B8: Saccharomyces cerevisiae mtDNA packaging protein Abf2 lacking the mitochondrial targeting sequence, Q02486 27-183 (natural protein)
chain: KASKRTQLRNELIKQGPKRPTSAYFLYLQDHRSQFVKENPTLRPAEISKIAGEKWQNLEADIKEKYISERKKLYSEYQKAKKEFDEKLPPKKPAGPFIKYANEVRSQVFAQHPDKSQLDLMKIIGDKWQSLDQSIKDKYIQEYKKAIQEYNARYPLN
B8 registered a stoichiometry N in data set [1] of 2.
